The results in this text go back to US20070105096A1.

For experiment [1], the target named is orphan G-protein coupled receptor G10d (human) (UniProt O15218). The experiment is described as follows: cell-based or functional assay.
In experiment [2] the target is type I angiotensin II receptor (AT1), bovine (bovine) (UniProt P25104). The experiment is described as follows: cell-based or functional assay.
type I angiotensin II receptor (AT1), bovine (bovine), sequence (P25104 whole entry): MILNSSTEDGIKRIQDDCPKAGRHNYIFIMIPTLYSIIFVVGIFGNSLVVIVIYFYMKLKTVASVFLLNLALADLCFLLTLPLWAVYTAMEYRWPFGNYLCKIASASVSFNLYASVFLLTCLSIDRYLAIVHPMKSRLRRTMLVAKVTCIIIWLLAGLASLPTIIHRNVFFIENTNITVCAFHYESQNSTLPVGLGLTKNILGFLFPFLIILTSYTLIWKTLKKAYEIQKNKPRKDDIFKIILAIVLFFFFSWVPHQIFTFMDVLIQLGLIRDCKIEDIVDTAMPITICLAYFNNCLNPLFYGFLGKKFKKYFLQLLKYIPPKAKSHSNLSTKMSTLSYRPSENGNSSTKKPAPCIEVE

orphan G-protein coupled receptor G10d (human), sequence (O15218 whole entry): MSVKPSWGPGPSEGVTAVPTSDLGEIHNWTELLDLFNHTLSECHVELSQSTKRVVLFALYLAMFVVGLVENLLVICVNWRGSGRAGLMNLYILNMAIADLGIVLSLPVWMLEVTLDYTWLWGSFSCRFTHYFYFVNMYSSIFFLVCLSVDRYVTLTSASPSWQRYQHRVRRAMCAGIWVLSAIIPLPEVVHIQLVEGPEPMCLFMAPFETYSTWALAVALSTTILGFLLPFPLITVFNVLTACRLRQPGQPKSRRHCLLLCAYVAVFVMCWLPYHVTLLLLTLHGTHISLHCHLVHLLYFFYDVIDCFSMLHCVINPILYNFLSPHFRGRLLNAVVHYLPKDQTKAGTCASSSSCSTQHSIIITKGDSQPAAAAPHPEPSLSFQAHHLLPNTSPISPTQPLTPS

Take “adrenocorticotropic hormone (ACTH) (from UniProt P01189 138-176) (peptide)”: in experiment [1], the induction ratio of the reporter (Renilla reniformis luciferase, CRE), host GBCRC6 with pAGal9-G10d, 100 nmol/L of ACTH turned out to be 11 fold.
In turn, “human angiotensin II (manufactured by Bachem) (from UniProt P01019 25-476) (peptide)” had a firefly luciferase activity (CRE reporter), host GBCC13 with pAGal9-AT1, angiotensin II 100 nmol/L in experiment [2] of 85 fold.
For “α-melanocyte-stimulating hormone (α-MSH) (from UniProt P01189 138-150) (peptide)”, in experiment [1], the induction ratio of the reporter (Renilla reniformis luciferase, CRE), host GBCRC6 with pAGal9-G10d, 100 µmol/L of α-MSH as printed stood at 10 fold.
